Data from the nanobody polyreactivity screen of Harvey et al. (2022).

Assay: yeast display, Sf9 membrane polyspecificity reagent, FACS + sequencing; frameworks hold sequencing errors
How it was run: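 After 36–48 hours of galactose induction, yeast (Saccharomyces cerevisiae BJ5465) displaying a synthetic nanobody library were stained at 4 °C for 1 hour with 10% biotinylated, detergent-solubilized Sf9 membrane reagent. Streptavidin microbeads enriched the stained cells before FACS sorting into low and high (top ~1%) gates on anti-HA and streptavidin fluorescence. Each clone's polyreactivity label reflects its gate of origin.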

| Sequence | polyreactivity (PSR sort gate) |
| --- | --- |
| EEELVESGGGLVQAGVSLRISCAASGSIFNYNAMGWYRQAPGKERELVAAISRGGTTNYADSVKGRFTISRDNANNTVYLQMNSLKPEDTAVYYCAAKAYDYYGPVYYWGQGSQVTVSS | high polyreactivity |
| QVQLVESGGGLLQAGGSLRLSCAASGRIFVNYAMGWYRQAPGKERELVAVISRSGGGTNYADSVKGRFTISRDNAKNTVYLQMNSLKQEDTAVYYCAADSYYYPYDYWGQGTQVTVSS | high polyreactivity |
| QVQLVESGGGLVQAGGSLRLSCDASGRTFDVYTKGWYRQAPGKERELVDANNGGGSTYYADSVKGRFTISRDNAKNTVYLQMNSLKPEDPAVFYCAAKFRAGRSSYRGSPRYDSWGQGTHVTVSS | high polyreactivity |
| QVQLVESGGGLLQAGGSLRISCAASGIIFRLYDMAWYRQAPGKERELVAAISSGGSTYYADSVKGRFTISRDNAKNTVYLQMNSLKPVDTAVYYCNARVRYKRTGRYGYWGQVTQVTVSS | high polyreactivity |
| QVQLVESWGGLVQAGGSLRLSCAASGITFYVYAMGWYRQAPGKERELVAAISSGSSTYYADSVKGRFTISRDNAKKTVYLQMNSLKPEDTAVYYCAARYRKYLSEYWGQGTQVTVSS | high polyreactivity |
| QVQLVESGGGLVQAGGSLRLSCAASGSTFGFYDMGWYRQAPGKERELVAAITSGDITYADSVKGRFTISRDNAKNTVYLQMNSLKPEDTAVYYCATTSYGYWFGYIPEVDYWGQGTQVTVSS | low polyreactivity |
| QVQLVESGGGLVQAGGSLRLSCAASGSTLYHNAMGWYRQAPGKERELVAAITRGGSTYYADSVKGRFTISRDNAKNTVYLQMNILKPEDTAVYYCAVAVLVYYGKYYPYKMYYWGQGTQVTVSS | high polyreactivity |
| QVQLVESGGGLVQAGGSLRLICAASGFTFGPYDMGGYRQAPGKERELVAAITDSSGSTHYADSVKGRFTISRDNAKNTVYLQMNSLKPEDTAVYYCAASDVVFALNGYYPGEDDYWGQGTQVTVSS | low polyreactivity |
| QVQLVESGGGLVQAGGSLRLSCAASGSIFGPYAMGWYRQAPGKERELVAAITIGGDNTYYADSVKGRFTISRDNAKNTVYLQMNSLKPEDTAVYYCAAKYYCGKPHYYEYYYWGQGTQVTVSS | low polyreactivity |
| QVQLVESGGGLVQAGGSLRLSCADSGRIFVLYAMGWYRQAPGKERELVAAISRSSTSTYYADSVKGRFTISRDNAKNTGYLQMNSLKPEDTAVYYCAARGRYAYPRYGYYPVNYWGQGTQVTVSS | high polyreactivity |
| KVQIVESVGGLVQAGASLRLSCAASGSIFRYYPMGWYRQAPGKERELDAAISSSGTTYYADSVKGRFTISRDNAKNTVYLQMNRLKPEDCAVYYCAAVWTYWYYGDDYWGLGTQVTVSS | low polyreactivity |
| QVQLVESGGGLVQAGGSLRLSCAASGSTFQYYAMGWYRQAPGKERELVAAISDGTNTNYADSVKGRFTISRDNAKNTVYLQMNSLKPEDTAVYYCAARFYSIVKYVGIGTDEYDYWGQGTQVTVSS | low polyreactivity |
| QVQLVESGGGLVQAGGRLRLSCAASRRIFDYNDRGWYRQAPGKERELVAAINDDSRTNYADSVKGRFTISRDNAKNTVYLQMNSLKPEDTAVYYCNNVYGRSGIGFDYWGQGTQVTVSS | low polyreactivity |
| QVQLVESGGCLVQAGGSLRLSCAASGSTFFSYAMGWYRQAPGKESEFVAANTYSSGRTYYADSVKGRFTISRDNAKNTVYLQMHSLKAEDSAVYSCSTPGFVWGRGYDYWGQGTHVTVSS | high polyreactivity |
| QVQLVESGGGLVQAGGSLRLSCAASGSIFWANAMGWYRQAPGNERELVAAISRSGTSTFYADSVKGRFTISRDNAKNTVYLQMNSLKPEDTAVYYCNAVGSGYRSWYVYWGQGTQVTVSS | high polyreactivity |
| QVQLVESGGGLVQAGGSLRLSCAASGRIFVLNAMGWYRQAPGKERELVAGITDGGSTNYADSVKGRFTISRDNAKNTVYLEMNSLKPEDTAVYYCAAVVYEYLYDFQAFVEDAGYYWGQGTQVTVSS | low polyreactivity |

| Sequence | polyreactivity (PSR sort gate) |
| --- | --- |
| QVQLEESGGRLVQAGGSLRLICAASGSTFLANAMGWYRQAPGKERELVATISSGGSTNYADSVKGRFTISRDNAKNTVYLQMNSLKPEDTAVYYCAAEYWYAWQEYGYWGQGTQVTVSS | low polyreactivity |
| QVQLVESGGGKVQAGGSLRLSCAASGFTFSNAMGWYRQAPGKERELVAAITRIGGSTFYADSVKGRFTISRDNAKNTVYLQLNSLKPEDTAVYSCAADYGLPLYEGYYWGQGTQVTVSS | low polyreactivity |
| QVQLVESGGGLVQAGGSLRLSCAASGRIFYYYAMGWYRQAPGKERELVATISGIGGSTYYADSVKGRFTISRDNAKNTVYLQMNSLKPEDTAVYFCTADYPTSYPLFKSGFDYWGQGTQVTVSS | low polyreactivity |
| QVQLVESGGGLVQAGGSLRLSCVASGNIFVFYLMGWYRQAPGKERELVASISSTGNTYYADSVKGRFTISRDNAKNTVYLQMNSLKPEDTAVYYCAADSHQNVSGWLRWPRMDYWGQGTQVTVSS | low polyreactivity |
| QVQLVESGGGLVQAGGSLRLSCAASGGIFQENAMGWYRQAPGKERELVATITRSTGSTYYADSVKGRFTISRDNAKNTVYLQMNSLKPEDTAVYYCAARRRSQYYRYAYKYDYWGQGTQVTVSS | high polyreactivity |
| QVQLVESCGGLVQARGSLRLSCAACGRIFIRYALGWYSQAPGTERELVAAITRGGSTYYADSVKGRFTISRDNAKITVFLQMNSVKPEDTAVYYCAGRVGYPYYYWGQGTEVTVSS | high polyreactivity |
| QVQLVESGGGLVQAGGSLRLSCAASGSIFYPYAMGWYRQAPGKERELVATISSGGRTNYADSVKGRFTISRDNAKNTVYLQMNSLKPEDTAVYYCAKDRYPTSWWFRRRDYWGQGTQVTVSS | high polyreactivity |
| QVQLVESGGGLVQAGGSLRLSCAASGFTFILYAMGWYRQAPGKERELVAAITTSGGRTYYADSVKGRFTISRDTAKNTVYLQMNSLKPEDTAVYYCNARTTPKERDYWGQGTQVTVSS | high polyreactivity |
| QVQLVESGGGLDQAGGSLRLSCAASGSTFNSYAMGWYRQAPGKERELVAAITSSVGSTYYADSVKGRFTISRDNAKNTVYLQMNSLKPEDTAVYYCAADYFSYWYFSGYDYWGQGTQVTVSS | low polyreactivity |
| QVQLVESGAGLVQAGGSLRLSCAASGFNFRENAMGWYRQAPGKERELVAAISRSGGSTYYADSVKGRFTISRDNAKNTVYLQMNSLKPEDTAVYYCAAPKDYDYWGQGTKVTVSS | low polyreactivity |
| QVQLVESGGGLVQAGGSLRLSCAASGRTFYYYAMGWYRQAPGKERELVATITKSSGSTSYADSVKGRFTISRDNAKNTVYLQMNSLKPEDTAVYYCAKVFRSGGVYRYDYWGQGTQVTVSS | high polyreactivity |
| QVQLVESGGGLVQAGGSLRLSCAASGRILGDNVMGWYRQAPGKERELVAAISSGSGSTYYADSVKGRFTISRDKAKNTVYLQMNSLKPEDTAVYYCAAGPYIYPGYDYWGQGTQVTVSS | low polyreactivity |
| QVQLVESGGGLVQAGGSLRLSCAATGFIFPLYAMGWYRQAPGKQSELVAAITWRGDTTSYADSVKGRFTISRDNAKNTVYLQMNSLKPVDPAVYYCAADSYRYRPGYGPVLYDYWGQGTQVTVSS | high polyreactivity |
| QVQLEESGGGLVQAGGSLRLSCAASGRIFGGYAMGWYRQAPGKERELVAAITSSGSTNYADSVKGRFTISRDNAKNTVYLQMNSLKPEDTAVYYCATDFKTVYYWWGMDYWGQGTQVTVSS | low polyreactivity |
| QVQLVESGGGLVQAGGSLRLSSAASGRIFYGYAMGWSRQAPGKERELVAAITRSSSTYFADSVKGRFTISRDNAKNTVYLQMNSLKPEDTAVYDCAVYRLSWIGSVQYEYWGQGTQVTVSS | high polyreactivity |
